From IntAct's records for PubMed 17412836 come the findings set out here.

B1: Protein Nef (Human immunodeficiency virus type 1 group M subtype B (isolate Lai)), Q9QPN3 (parent)
chain: MGGKWSKSSVVGWPAVRERMRRAEPAADGVGAVSRDLEKHGAITSSNTAATNADCAWLEAQEEEEVGFPVTPQVPLRPMTYKAAVDLSHFLKEKGGLEGLIHSQRRQDILDLWIYHTQGYFPDWQNYTPEPGVRYPLTFGWCYKLVPVEPDKVEEANKGENTRLLHPVSLHGMDDPEREVLEWRFDSRLAFHHVARELHPEY
partner: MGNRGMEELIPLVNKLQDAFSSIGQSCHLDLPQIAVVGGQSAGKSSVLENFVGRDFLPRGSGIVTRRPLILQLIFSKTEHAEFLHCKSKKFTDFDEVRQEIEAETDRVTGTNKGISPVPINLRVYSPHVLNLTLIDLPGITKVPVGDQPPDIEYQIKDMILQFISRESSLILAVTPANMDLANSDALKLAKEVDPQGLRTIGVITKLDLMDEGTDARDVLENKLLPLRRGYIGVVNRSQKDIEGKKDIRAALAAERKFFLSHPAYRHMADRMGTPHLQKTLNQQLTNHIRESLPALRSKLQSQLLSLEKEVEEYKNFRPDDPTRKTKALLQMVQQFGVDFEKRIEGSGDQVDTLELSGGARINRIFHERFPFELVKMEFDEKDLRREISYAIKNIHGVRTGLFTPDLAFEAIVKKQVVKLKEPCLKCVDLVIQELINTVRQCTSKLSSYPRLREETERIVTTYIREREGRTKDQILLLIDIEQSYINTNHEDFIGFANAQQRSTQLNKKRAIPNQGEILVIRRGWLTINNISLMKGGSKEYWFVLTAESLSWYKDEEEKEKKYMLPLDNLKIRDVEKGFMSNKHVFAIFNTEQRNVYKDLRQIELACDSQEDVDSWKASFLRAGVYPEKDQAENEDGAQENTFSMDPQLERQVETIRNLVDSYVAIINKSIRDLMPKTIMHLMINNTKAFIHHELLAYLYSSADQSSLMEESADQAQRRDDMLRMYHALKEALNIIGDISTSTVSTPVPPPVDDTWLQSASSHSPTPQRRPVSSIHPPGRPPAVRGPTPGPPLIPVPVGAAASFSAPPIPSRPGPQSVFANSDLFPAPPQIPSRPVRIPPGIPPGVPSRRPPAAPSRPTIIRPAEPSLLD

The variants in the test derive from B1. To be noted: with dyn2_human DNM2, P50570.
For the variant L112A, the “effect of a mutation on the interaction” value is “decreasing interaction strength”.

Regarding F121A;D123A, the “effect of a mutation on the interaction” value was “disrupting interaction strength”.

As for D123A, the “effect of a mutation on the interaction” value is listed as “decreasing interaction strength”.

For F121A, the “effect of a mutation on the interaction” value is given as “decreasing interaction strength”. The entry for G2A;G3A is “disrupting interaction strength”.
